Patent publication US7598225B1 (priority 1995, dated 2009)

How the values were obtained:
[1] = molecular target: human HLA A2 molecules (Homo sapiens, UniProt P04439, /I121R/I166T/I218V/L300P/L318F/N151K/N90K/P208A/P217A/Q86G/Q94H/R138H/R169H/T345S); assay type: binding
[2] = tested on: PBMC from donors expressing the HLA A2 class 1 allele; assay type: cell-based, human

**Q.** For “PSA 141-150: PSA peptide, amino acids 141-150, sequence F L T P K K L Q C V (Table 7) (FLTPKKLQCV)”, which “score in T2 cell binding assay” value [1] is on record?
**A.** Its value is “positive”.

**Q.** “PSA 146-154: PSA peptide, amino acids 146-154, sequence K L Q C V D L H V (Table 7) (KLQCVDLHV)” was tested. Which “score in T2 cell binding assay” value [1] did it give?
**A.** Its value is “positive”.

**Q.** What does the source list for “PSA 154-163: PSA peptide, amino acids 154-163, sequence V I S N D V C A Q V (Table 7) (VISNDVCAQV)”?
**A.** score in T2 cell binding assay [1]: positive; T cell lines from PBMC of two prostate cancer patients [2]: established
